Reference: patent publication US9212231B2, “TRAIL R2-specific multimeric scaffolds” (MEDIMMUNE, LLC, dated 2015)
Where “and” joins values, the source holds several entries; their conditions need not be identical. Equal entries are not always repeated.

Assays:
[1] = target: TRAIL R2 (recombinant, form not given) (human, UniProt O14763, biotin (in the capture ELISA and the competition ELISA of Example 14)); assay: SPR (ProteOn XPR36), TRAIL R2 immobilised, equilibrium analysis
[2] = target: T1, TRAIL R2 expressed on the cell surface (human, UniProt O14763); assay: cell-based or functional assay
[3] = target: Murine CD40L on the Th2 cell line D10.G4.1 (murine, UniProt P27548); assay: cell-based or functional assay
[4] = target: recombinant Murine CD40L (E. coli produced) (murine, UniProt P27548); assay: biosensor competition: inhibition of Murine CD40L (0.5 µg/ml) binding to immobilised Murine CD40-Fc
[5] = target: T1, TRAIL R2 expressed on the cell surface; assay: cell-based or functional assay; remark: listed apart in the source
[6] = target: T1, TRAIL R2 expressed on the cell surface; assay: cell-based or functional assay; remark: listed apart in the source
[7] = target: T1, TRAIL R2 expressed on the cell surface; assay: cell-based or functional assay; remark: listed apart in the source

B1: C4 (designed binder)
chain: AIEVKDVTDTTALITWAKPWVDPPPLWGCELAYGIKDVPGDRTTIDLQQKHTAYSIGNLKPDTEYEVSLICFDPYNKRNVPAKETFTTGGGTLGHHHHHHHH
[1]
  Fold Improvement (Kd, against lead clone 1C12): 83 fold
  Kd: 50 nM

B2: G6 (designed binder)
chain: AIEVKDVTDTTALITWAKPWVDPPPLWGCELAYGIKDVPGDRTTIDLQQKHTAYSIGNLKPDTEYEVSLICFDPYGMRSKPAKETFTTGGGTLGHHHHHHHH
[1]
  Fold Improvement (Kd, against lead clone 1C12): 96 fold
  Kd: 43 nM

B3: A4(1E11) (designed binder)
chain: SGGGGSAIEVKDVTDTTALITWAKPWVDPPPLWGCELAYGIKDVPGDRTTIDLQQKHTAYSIGNLKPDTEYEVSLICFDPYGAKSNPAKETFTTGGGGSGGGGSGGGGSAIEVKDVTDTTALITWAKPWVDPPPLWGCELAYGIKDVPGDRTTIDLQQKHTAYSIGNLKPDTEYEVSLICFDPYGAKSNPAKETFTTGGGGSGGGGSGGGGSAIEVKDVTDTTALITWAKPWVDPPPLWGCELAYGIKDVPGDRTTIDLQQKHTAYSIGNLKPDTEYEVSLICFDPYGAKSNPAKETFTTGGGGSGGGGSGGGGSAIEVKDVTDTTALITWAKPWVDPPPLWGCELAYGIKDVPGDRTTIDLQQKHTAYSIGNLKPDTEYEVSLICFDPYGAKSNPAKETFTTGGGGSGGGGSGTGSAMASGGGGSAIEVKDVTDTTALITWAKPWVDPPPLWGCELAYGIKDVPGDRTTIDLQQKHTAYSIGNLKPDTEYEVSLICFDPYGAKSNPAKETFTTGGGGSGGGGSGGGGSAIEVKDVTDTTALITWAKPWVDPPPLWGCELAYGIKDVPGDRTTIDLQQKHTAYSIGNLKPDTEYEVSLICFDPYGAKSNPAKETFTTGGGGSGGGGSGTLGHHHHHHHH
[2]
  EC50, killing of H2122 cells: 0.0009 nM
  Maximum Inhibition %, H2122 cells: 97%

B4: C2(M13) (designed binder)
chain: AIEVKDVTDTTALITWHDAFGYDFGCELTYGIKDVPGDRTTIDLPDHFHNYSIGNLKPDTEYEVSLICANDHGFDSNPAKETFTTGGGGSGGGGSGGGGSRLDAPGQIEVKDVTDTTALITWHDAFGYDFGCELTYGIKDVPGDRTTIDLPDHFHNYSIGNLKPDTEYEVSLICANDHGFDSNPAKETFTTGGGTLGHHHHHHHH
[3]
  IC50, inhibition of Murine CD40L-induced CD86 expression on CD19 gated B cells: 100000 to 200000 nM
[4]
  IC50: 5 nM and 6 nM

B5: A5(1E11) (designed binder)
chain: SGGGGSAIEVKDVTDTTALITWAKPWVDPPPLWGCELAYGIKDVPGDRTTIDLQQKHTAYSIGNLKPDTEYEVSLICFDPYGAKSNPAKETFTTGGGGSGGGGSGGGGSAIEVKDVTDTTALITWAKPWVDPPPLWGCELAYGIKDVPGDRTTIDLQQKHTAYSIGNLKPDTEYEVSLICFDPYGAKSNPAKETFTTGGGGSGGGGSGGGGSAIEVKDVTDTTALITWAKPWVDPPPLWGCELAYGIKDVPGDRTTIDLQQKHTAYSIGNLKPDTEYEVSLICFDPYGAKSNPAKETFTTGGGGSGGGGSGGGGSAIEVKDVTDTTALITWAKPWVDPPPLWGCELAYGIKDVPGDRTTIDLQQKHTAYSIGNLKPDTEYEVSLICFDPYGAKSNPAKETFTTGGGGSGGGGSGTGSAMASGGGGSAIEVKDVTDTTALITWAKPWVDPPPLWGCELAYGIKDVPGDRTTIDLQQKHTAYSIGNLKPDTEYEVSLICFDPYGAKSNPAKETFTTGGGGSGGGGSGGGGSAIEVKDVTDTTALITWAKPWVDPPPLWGCELAYGIKDVPGDRTTIDLQQKHTAYSIGNLKPDTEYEVSLICFDPYGAKSNPAKETFTTGGGGSGGGGSGGGGSAIEVKDVTDTTALITWAKPWVDPPPLWGCELAYGIKDVPGDRTTIDLQQKHTAYSIGNLKPDTEYEVSLICFDPYGAKSNPAKETFTTGGGGSGGGGSGGGGSAIEVKDVTDTTALITWAKPWVDPPPLWGCELAYGIKDVPGDRTTIDLQQKHTAYSIGNLKPDTEYEVSLICFDPYGAKSNPAKETFTTGGGGSGGGGSGTLGHHHHHHHH
[2]
  EC50, killing of H2122 cells: 0.0006 nM
  Maximum Inhibition %, H2122 cells: 97%

B6: A5(G6) (designed binder)
chain: SGGGGSAIEVKDVTDTTALITWAKPWVDPPPLWGCELAYGIKDVPGDRTTIDLQQKHTAYSIGNLKPDTEYEVSLICFDPYGMRSKPAKETFTTGGGGSGGGGSGGGGSAIEVKDVTDTTALITWAKPWVDPPPLWGCELAYGIKDVPGDRTTIDLQQKHTAYSIGNLKPDTEYEVSLICFDPYGMRSKPAKETFTTGGGGSGGGGSGGGGSAIEVKDVTDTTALITWAKPWVDPPPLWGCELAYGIKDVPGDRTTIDLQQKHTAYSIGNLKPDTEYEVSLICFDPYGMRSKPAKETFTTGGGGSGGGGSGGGGSAIEVKDVTDTTALITWAKPWVDPPPLWGCELAYGIKDVPGDRTTIDLQQKHTAYSIGNLKPDTEYEVSLICFDPYGMRSKPAKETFTTGGGGSGGGGSGTGSAMASGGGGSAIEVKDVTDTTALITWAKPWVDPPPLWGCELAYGIKDVPGDRTTIDLQQKHTAYSIGNLKPDTEYEVSLICFDPYGMRSKPAKETFTTGGGGSGGGGSGGGGSAIEVKDVTDTTALITWAKPWVDPPPLWGCELAYGIKDVPGDRTTIDLQQKHTAYSIGNLKPDTEYEVSLICFDPYGMRSKPAKETFTTGGGGSGGGGSGGGGSAIEVKDVTDTTALITWAKPWVDPPPLWGCELAYGIKDVPGDRTTIDLQQKHTAYSIGNLKPDTEYEVSLICFDPYGMRSKPAKETFTTGGGGSGGGGSGGGGSAIEVKDVTDTTALITWAKPWVDPPPLWGCELAYGIKDVPGDRTTIDLQQKHTAYSIGNLKPDTEYEVSLICFDPYGMRSKPAKETFTTGGGGSGGGGSGTLGHHHHHHHH
[5]
  EC50, killing of Jurkat cells: 0.0001 nM
  Maximum Inhibition %, Jurkat cells: 100%
[6]
  IC50 of cell killing, 786-0 cells (CellTiter-Glo): > 10 nM
  IC50 of cell killing, BT-649 cells (CellTiter-Glo): > 10 nM
  IC50 of cell killing, CaCo-2 cells (CellTiter-Glo): 0.044 nM
  IC50 of cell killing, HPAF-II cells (CellTiter-Glo): 0.016 nM
  IC50 of cell killing, HT29 cells (CellTiter-Glo): 0.01 nM
  IC50 of cell killing, Hep3B cells (CellTiter-Glo): 0.023 nM
  IC50 of cell killing, Hep G2 cells (CellTiter-Glo): 0.04 nM
  IC50 of cell killing, Hs766T cells (CellTiter-Glo): > 10 nM
  IC50 of cell killing, LoVo cells (CellTiter-Glo): 0.005 nM
  IC50 of cell killing, NCI-H23 cells (CellTiter-Glo): > 10 nM
  IC50 of cell killing, NCI-H522 cells (CellTiter-Glo): > 10 nM
  IC50 of cell killing, SKHEP-1 cells (CellTiter-Glo): 0.055 nM
  IC50 of cell killing, SNB-75 cells (CellTiter-Glo): > 10 nM
  IC50 of cell killing, SNU-387 cells (CellTiter-Glo): > 10 nM
  IC50 of cell killing, SNU-398 cells (CellTiter-Glo): > 10 nM
  IC50 of cell killing, SNU-475 cells (CellTiter-Glo): > 10 nM
  IC50 of cell killing, SW820 cells (CellTiter-Glo): > 10 nM
  IC50 of cell killing, SW837 cells (CellTiter-Glo): > 10 nM
  IC50 of cell killing, T84 cells (CellTiter-Glo): 0.247 nM
[7]
  EC50, killing of Colo205 cells: 0.0005 nM
  Maximum Inhibition %, Colo205 cells: 100%

B7: A3 (G6) (designed binder)
chain: SGGGGSAIEVKDVTDTTALITWAKPWVDPPPLWGCELAYGIKDVPGDRTTIDLQQKHTAYSIGNLKPDTEYEVSLICFDPYGMRSKPAKETFTTGGGGSGGGGSGGGGSAIEVKDVTDTTALITWAKPWVDPPPLWGCELAYGIKDVPGDRTTIDLQQKHTAYSIGNLKPDTEYEVSLICFDPYGMRSKPAKETFTTGGGGSGGGGSGGGGSAIEVKDVTDTTALITWAKPWVDPPPLWGCELAYGIKDVPGDRTTIDLQQKHTAYSIGNLKPDTEYEVSLICFDPYGMRSKPAKETFTTGGGGSGGGGSGGGGSAIEVKDVTDTTALITWAKPWVDPPPLWGCELAYGIKDVPGDRTTIDLQQKHTAYSIGNLKPDTEYEVSLICFDPYGMRSKPAKETFTTGGGGSGGGGSGTLGHHHHHHHH
[5]
  EC50, killing of Jurkat cells: 0.05 nM
  Maximum Inhibition %, Jurkat cells: 83%
[7]
  EC50, killing of Colo205 cells: 0.04 nM
  Maximum Inhibition %, Colo205 cells: 97%

B8: C1(M13) (designed binder)
chain: AIEVKDVTDTTALITWHDAFGYDFGCELTYGIKDVPGDRTTIDLPDHFHNYSIGNLKPDTEYEVSLICANDHGFDSNPAKETFTTAGGGGSRLDAPGQIEVKDVTDTTALITWHDAFGYDFGCELTYGIKDVPGDRTTIDLPDHFHNYSIGNLKPDTEYEVSLICANDHGFDSNPAKETFTTGGGTLGHHHHHHHH
[3]
  IC50, inhibition of Murine CD40L-induced CD86 expression on CD19 gated B cells: 100000 to 200000 nM
[4]
  IC50: 29 nM

B9: 1C12 (designed binder)
chain: AIEVKDVTDTTALITWAKPEKWDGSIYGCELAYGIKDVPGDRTTIDLNSRHTAYSIGNLKPDTEYEVSLICFTPYGAKSNPAKETFTTGGGTLGHHHHHHHH
[1]
  Kd: 4130 nM

B10: G3 (designed binder)
chain: AIEVKDVTDTTALITWAKPEKWDPPLWGCELAYGIKDVPGDRTTIDLNSRHTAYSIGNLKPDTEYEVSLICFTPYGAKSNPAKETFTTGGGTLGHHHHHHHH
[1]
  Fold Improvement (Kd, against lead clone 1C12): 10 fold
  Kd: 422 nM

B11: C3(M13) (designed binder)
chain: AIEVKDVTDTTALITWHDAFGYDFGCELTYGIKDVPGDRTTIDLPDHFHNYSIGNLKPDTEYEVSLICANDHGFDSNPAKETFTTGGGGSGGGGSGGGGSGGGGSGGGGSRLDAPGQIEVKDVTDTTALITWHDAFGYDFGCELTYGIKDVPGDRTTIDLPDHFHNYSIGNLKPDTEYEVSLICANDHGFDSNPAKETFTTGGGTLGHHHHHHHH
[3]
  IC50, inhibition of Murine CD40L-induced CD86 expression on CD19 gated B cells: 100000 to 200000 nM
[4]
  IC50: 5 nM and 6 nM

B12: C4(M13) (designed binder)
chain: AIEVKDVTDTTALITWHDAFGYDFGCELTYGIKDVPGDRTTIDLPDHFHNYSIGNLKPDTEYEVSLICANDHGFDSNPAKETFTTGGGGSGGGGSGGGGSGGGGSGGGGSGGGGSGGGGSRLDAPGQIEVKDVTDTTALITWHDAFGYDFGCELTYGIKDVPGDRTTIDLPDHFHNYSIGNLKPDTEYEVSLICANDHGFDSNPAKETFTTGGGTLGHHHHHHHH
[3]
  IC50, inhibition of Murine CD40L-induced CD86 expression on CD19 gated B cells: 100000 to 200000 nM
[4]
  IC50: 5 nM and 6 nM

B13: M13 (M13) (designed binder)
chain: AIEVKDVTDTTALITWHDAFGYDFGCELTYGIKDVPGDRTTIDLPDHFHNYSIGNLKPDTEYEVSLICANDHGFDSNPAKETFTTGGGTLGHHHHHHHH
[4]
  IC50: 71 nM
